According to the supplement of paper PMC9112550, “Optimization of the antimicrobial peptide Bac7 by deep mutational scanning” (BMC Biology, 2022):

system: Escherichia coli TOP10; assay: shrunken log2 fold change of peptide-encoding DNA abundance (4.5 h post-induction vs induction); higher = less antimicrobial activity (less host growth inhibition); conditions: time post-induction: 4.5 h; library: site-saturation at positions 5, 18, 19, 20
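Note: peptides expressed intracellularly from a pBAD plasmid library in pooled LB shake-flask culture, induced with 0.3% L-arabinose, DNA abundance read by NGS, three biological replicates, DESeq2 with apeglm shrinkage.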

Sequence	shrunken log2 fold change
RRIRHRPPRLPRPRPRPEICPRP	-0.00961
RRIRARPPRLPRPRPRPGKFPRP	-0.167
RRIRIRPPRLPRPRPRPPETPRP	0.246
RRIRNRPPRLPRPRPRPNPLPRP	0.0887
RRIRVRPPRLPRPRPRPRIMPRP	-0.601
RRIRQRPPRLPRPRPRPNLNPRP	-0.221
RRIRCRPPRLPRPRPRPPGVPRP	0.158
RRIRSRPPRLPRPRPRPTNIPRP	-0.434
RRIRARPPRLPRPRPRPTYAPRP	0.2
RRIRKRPPRLPRPRPRPETKPRP	0.106
RRIRRRPPRLPRPRPRPVNPPRP	0.391
RRIRSRPPRLPRPRPRPWVFPRP	0.0645
RRIRFRPPRLPRPRPRPTKYPRP	-0.635
RRIRRRPPRLPRPRPRPIVEPRP	0.136
RRIRRRPPRLPRPRPRPVNQPRP	0.129
RRIRLRPPRLPRPRPRPSCMPRP	-0.362
RRIRGRPPRLPRPRPRPQPFPRP	-0.0232
RRIRQRPPRLPRPRPRPGEFPRP	0.313
RRIRARPPRLPRPRPRPGINPRP	-0.242
RRIRYRPPRLPRPRPRPPISPRP	-0.501
RRIRIRPPRLPRPRPRPCPIPRP	0.128
RRIRERPPRLPRPRPRPMLGPRP	0.00848
RRIRGRPPRLPRPRPRPCSNPRP	0.275
RRIRTRPPRLPRPRPRPNFHPRP	-0.19
RRIRVRPPRLPRPRPRPHYSPRP	-0.424

Sequence	shrunken log2 fold change
RRIRERPPRLPRPRPRPETIPRP	-0.0222
RRIRDRPPRLPRPRPRPRNNPRP	-0.196
RRIRLRPPRLPRPRPRPSLEPRP	-0.209
RRIRHRPPRLPRPRPRPDWNPRP	-0.207
RRIRMRPPRLPRPRPRPACFPRP	0.421
RRIRCRPPRLPRPRPRPSSAPRP	-0.278
RRIRHRPPRLPRPRPRPWWKPRP	-0.0848
RRIRNRPPRLPRPRPRPTLKPRP	0.0241
RRIRRRPPRLPRPRPRPYCMPRP	-0.546
RRIRVRPPRLPRPRPRPFISPRP	-0.11
RRIRSRPPRLPRPRPRPLSVPRP	-0.0334
RRIRGRPPRLPRPRPRPHHQPRP	-0.185
RRIRQRPPRLPRPRPRPFHAPRP	-0.117
RRIRWRPPRLPRPRPRPDWEPRP	0.229
RRIRPRPPRLPRPRPRPVYLPRP	-0.6
RRIRERPPRLPRPRPRPLVVPRP	0.0509
RRIRPRPPRLPRPRPRPSDRPRP	-0.00705
RRIRDRPPRLPRPRPRPNMLPRP	0.0937
RRIRERPPRLPRPRPRPEICPRP	0.162
RRIRDRPPRLPRPRPRPIHMPRP	0.0641
RRIRCRPPRLPRPRPRPAWPPRP	0.895
RRIRKRPPRLPRPRPRPLYHPRP	-0.364
RRIRVRPPRLPRPRPRPHTRPRP	-0.178
RRIRCRPPRLPRPRPRPLLGPRP	0.201
RRIRERPPRLPRPRPRPAVPPRP	0.0842

Sequence	shrunken log2 fold change
RRIRPRPPRLPRPRPRPMYPPRP	-0.135
RRIRHRPPRLPRPRPRPEWFPRP	-0.0468
RRIRHRPPRLPRPRPRPKAWPRP	-0.00151
RRIRIRPPRLPRPRPRPRQHPRP	-0.199
RRIRSRPPRLPRPRPRPCHWPRP	-0.0782
RRIRPRPPRLPRPRPRPDMTPRP	-0.293
RRIRARPPRLPRPRPRPDQQPRP	-0.0359
RRIRKRPPRLPRPRPRPMMHPRP	0.0869
RRIRERPPRLPRPRPRPHSVPRP	-0.00145
RRIRKRPPRLPRPRPRPLKWPRP	0.18
RRIRQRPPRLPRPRPRPRFWPRP	0.23
RRIRMRPPRLPRPRPRPPVDPRP	1.14
RRIRMRPPRLPRPRPRPLKSPRP	0.11
RRIRARPPRLPRPRPRPEIRPRP	0.132
RRIRSRPPRLPRPRPRPMVVPRP	0.149
RRIRGRPPRLPRPRPRPICKPRP	0.616
RRIRQRPPRLPRPRPRPSWIPRP	-0.225
RRIRKRPPRLPRPRPRPHISPRP	-0.00759
RRIRARPPRLPRPRPRPHHIPRP	-0.345
RRIRRRPPRLPRPRPRPQWPPRP	0.00418
RRIRDRPPRLPRPRPRPIIGPRP	-0.193
RRIRERPPRLPRPRPRPQEAPRP	-0.018
RRIRSRPPRLPRPRPRPSIYPRP	-0.00286
RRIRARPPRLPRPRPRPVPAPRP	0.814
RRIRARPPRLPRPRPRPYECPRP	-0.327
